Test results as given in patent publication US20100041096.

B1: His-BRCA1 (1-304) / His-BARD1 (14-189) (protein)
chain 1: MDLSALRVEEVQNVINAMQKILECPICLELIKEPVSTKCDHIFCKFCMLKLLNQKKGPSQCPLCKNDITKRSLQESTRFSQLVEELLKIICAFQLDTGLEYANSYNFAKKENNSPEHLKDEVSIIQSMGYRNRAKRLLQSEPENPSLQETSLSVQLSNLGTVRTLRTKQRIQPQKTSVYIELGSDSSEDTVNKATYCSVGDQELLQITPQGTRDEISLDSAKKAACEFSETDVTNTEHHQPSNNDLNTTEKRAAERHPEKYQGSSVSNLHVEPCGTNTHASSLQHENSSLLLTKDRMNVEKAEF
chain 2: IRSGNEPRSAPAMEPDGRGAWAHSRAALDRLEKLLRCSRCTNILREPVCLGGCEHIFCSNCVSDCIGTGCPVCYTPAWIQDLKINRQLDSMIQLCSKLRNLLHDNELSDLKEDKPRKSLFNDAGNKKNSIKMWFSPRSKKVRYVVSKASVQTQPAIKKDASAQQDSYEFVSPSPPA
B2: Myc-BRCA1(1-772)/BARD1 complex (protein)
chain 1: MDLSALRVEEVQNVINAMQKILECPICLELIKEPVSTKCDHIFCKFCMLKLLNQKKGPSQCPLCKNDITKRSLQESTRFSQLVEELLKIICAFQLDTGLEYANSYNFAKKENNSPEHLKDEVSIIQSMGYRNRAKRLLQSEPENPSLQETSLSVQLSNLGTVRTLRTKQRIQPQKTSVYIELGSDSSEDTVNKATYCSVGDQELLQITPQGTRDEISLDSAKKAACEFSETDVTNTEHHQPSNNDLNTTEKRAAERHPEKYQGSSVSNLHVEPCGTNTHASSLQHENSSLLLTKDRMNVEKAEFCNKSKQPGLARSQHNRWAGSKETCNDRRTPSTEKKVDLNADPLCERKEWNKQKLPCSENPRDTEDVPWITLNSSIQKVNEWFSRSDELLGSDDSHDGESESNAKVADVLDVLNEVDEYSGSSEKIDLLASDPHEALICKSERVHSKSVESNIEDKIFGKTYRKKASLPNLSHVTENLIIGAFVTEPQIIQERPLTNKLKRKRRPTSGLHPEDFIKKADLAVQKTPEMINQGTNQTEQNGQVMNITNSGHENKTKGDSIQNEKNPNPIESLEKESAFKTKAEPISSSISNMELELNIHNSKAPKKNRLRRKSSTRHIHALELVVSRNLSPPNCTELQIDSCSSSEEIKKKKYNQMPVRHSRNLQLMEGKEPATGAKKSNKPNEQTSKRHDSDTFPELKLTNAPGSFTKCSNTSELKEFVNPSLPREEKEEKLETVKVSNNAEDPKDLMLSGERVLQTERSVESSSISLV
chain 2: MPDNRQPRNRQPRIRSGNEPRSAPAMEPDGRGAWAHSRAALDRLEKLLRCSRCTNILREPVCLGGCEHIFCSNCVSDCIGTGCPVCYTPAWIQDLKINRQLDSMIQLCSKLRNLLHDNELSDLKEDKPRKSLFNDAGNKKNSIKMWFSPRSKKVRYVVSKASVQTQPAIKKDASAQQDSYEFVSPSPPADVSERAKKASARSGKKQKKKTLAEINQKWNLEAEKEDGEFDSKEESKQKLVSFCSQPSVISSPQINGEIDLLASGSLTESECFGSLTEVSLPLAEQIESPDTKSRNEVVTPEKVCKNYLTSKKSLPLENNGKRGHHNRLSSPISKRCRTSILSTSGDFVKQTVPSENIPLPECSSPPSCKRKVGGTSGRKNSNMSDEFISLSPGTPPSTLSSSSYRRVMSSPSAMKLLPNMAVKRNHRGETLLHIASIKGDIPSVEYLLQNGSDPNVKDHAGWTPLHEACNHGHLKVVELLLQHKALVNTTGYQNDSPLHDAAKNGHVDIVKLLLSYGASRNAVNIFGLRPVDYTDDESMKSLLLLPEKNESSSASHCSVMNTGQRRDGPLVLIGSGLSSEQQKMLSELAVILKAKKYTEFDSTVTHVVVPGDAVQSTLKCMLGILNGCWILKFEWVKACLRRKVCEQEEKYEIPEGPRRSRLNREQLLPKLFDGCYFYLWGTFKHHPKDNLIKLVTAGGGQILSRKPKPDSDVTQTINTVAYHARPDSDQRFCTQYIIYEDLCNYHPERVRQGKVWKAPSSWFIDCVMSFELLPLDS

Assays:
[1] = target: His-Flag-NPM (full length, recombinant, from E. coli), P06748
Chain of His-Flag-NPM (full length, recombinant, from E. coli), P06748 (P06748 whole entry): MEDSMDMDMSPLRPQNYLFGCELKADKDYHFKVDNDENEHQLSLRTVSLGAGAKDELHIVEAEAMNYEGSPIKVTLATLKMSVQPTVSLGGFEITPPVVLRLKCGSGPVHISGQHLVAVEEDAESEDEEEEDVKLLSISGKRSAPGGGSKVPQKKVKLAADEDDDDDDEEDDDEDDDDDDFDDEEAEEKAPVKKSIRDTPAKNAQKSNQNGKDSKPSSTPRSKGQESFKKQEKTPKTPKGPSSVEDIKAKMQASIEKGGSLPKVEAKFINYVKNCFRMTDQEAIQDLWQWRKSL

[2] = target: endogenous NPM of 293T cells, P06748
Chain of endogenous NPM of 293T cells, P06748 (P06748 whole entry): as above

Protein	in vitro ubiquitination with purified recombinant proteins (anti-Flag immunoblot) [1]	LC/MS/MS identification of proteins conjugated with Flag-ubiquitin in the reaction of the ligase immunocomplex [2]
B1	two slowly floating products were detected in the gel (lane 7)	
B2		Of the proteins identified, nucleophosmin/B23 (NPM) exhibited the highest possibility with 17 peptides displaying a probability based Mowse score of 126
